Experimental findings from patent US20120082667A1 (IMMUNAS PHARMA, published 2012) are described below.

Experiment [1] has as its target T1, A beta monomer prepared from synthetic A beta1-40 (TFA form), 0.1 mg/ml in PBS (UniProt P05067 672-711).
T1 construct: domain: A beta1-40; also called A beta1-40 monomer; A beta40 monomer
Kind of experiment: dot blot: peptide spotted on nitrocellulose (0.1 micro g/dot), hybridoma culture supernatant, HRP anti-mouse IgG, ECL. As to the method:
(§1) Dot blot analysis was carried out for hybridomas that gave positive result for primary screening. […] The membrane was blocked with Tris Buffer containing 5% low-fat milk and 0.05% Tween-20, and reacted with hybridoma culture supernatants and detected with chemiluminescence kit (ECL) after reacting with HRP-conjugated anti-mouse IgG antibody.

The target in experiment [2] is T2, synthesized A beta1-42 (UniProt P05067 672-713).
T2 construct: domain: A beta1-42; spotted in the dot blot as the second of the two types of oligomers; also called A beta42 oligomer
The description is as above. As to the method:
as §1

Experiment [3] concerns the target T3, A beta oligomer prepared from synthetic A beta1-40 (HCl form), 0.1 mg/ml in PBS, incubated at 37 degrees C … (UniProt P05067 672-711).
T3 construct: domain: A beta1-40; non-fibrous assembly of A beta1-40; also called A beta1-40 oligomer; A beta40 oligomer
The description is as above. As to the method: as §1

The target of experiment [4] is T1, A beta monomer prepared from synthetic …. As to the kind of experiment: competitive ELISA: antibody pre-incubated with soluble A beta1-40 monomer (inhibitor, varied), then binding to immobilised A beta1-40 oligomer read as OD450. Background: In an ELISA, binding on a coated surface is turned into a signal by an enzyme label.
The target of experiment [5] is T3, A beta oligomer prepared from synthetic …. Kind of experiment: competitive ELISA: antibody pre-incubated with soluble A beta1-40 oligomer (inhibitor, varied), then binding to immobilised A beta1-40 oligomer read as OD450.
Experiment [6] shares this target. Described as above. The source holds these as a separate data set.
Experiment [7] addresses T1, A beta monomer prepared from synthetic …. As to the kind of experiment: competitive ELISA: antibody pre-incubated with soluble A beta1-40 monomer (inhibitor, varied), then binding to immobilised A beta1-40 oligomer read as OD450. This is another data set of the same source.
Experiment [8] deals with T3, A beta oligomer prepared from synthetic …. As to the kind of experiment: SPR, Biacore 3000, A beta1-40 oligomer on CM5 chip, antibody as analyte at five concentrations. As to the method: The analysis was carried out by Surface Plasmon Resonance (SPR) using Biacore 3000 (GE Healthcare Sciences).
In experiment [9] the target is T2, synthesized A beta1-42. Kind of experiment: dot blot, synthesized A beta1-42 spotted, hybridoma supernatant. As to the method: as §1

B1: AL-221 antibody (antibody, IgG2b, V domains shown)
VH: QVTLKESGPGILKPSQTLSLTCSFSGFSLSTSGMGVGWIRQPSGKGLEWLAHIWWDDDKYYNPSLKSQLTISKDTSRNQVFLKITSVDTADTATYYCARRSLSRDYFDYWGQGTTLTVSS
VL: DVLMTQTPLSLPVSLGDQASISCRSSQSIVHSNGNTYLEWYLQKPGQSPKLLIYKVSNRFSGVPDRFSGSGSGTDFTLKISRVEAEDLGVYYCFQGSHVPLTFGAGTKLELK
For B1, the binding result (in experiment [1]; with synthesized A beta1-42 [2]; in [3]) was “binds” throughout.

B2: AL-223 antibody (antibody, IgG2a, V domains shown)
VH: QVTLKESGPGILKPSQTLSLTCSFSGFSLSTSGMGVGWIRQPSGKGLEWLAHIWWDDDKYYNPSLKSQLTISKDTSRNQVFLKITSVDTADTATYYCARRALITTRDYFDYWGQGTTLTVSS
VL: DVLMTQTPLSLPVSLGDQASISCRSSQSIVHSNGNTYLEWYLQKPGQSPKLLIYKVSNRFSGVPDRFSGSGSGTDFTLKISRVEAEDLGVYYCFQGSHVPLTFGAGTKLELK
With B2, the binding result (in [4]; with synthesized A beta1-42 [2]; in [5]) was “binds” throughout.

B3: AL-222 antibody (antibody, IgG2b, V domains shown)
VH: QVTLKESGPGILKPSQTLSLTCSFSGFSLSTAGMGVGWIRQPSGKGLEWLAHIWWDDDKYYNPSLKSQLTISKDTSRNQVFLKITSVDTADTATYYCARRGLYYGNYDAMDYWGQGTSVTVSS
VL: DVLMTQTPLSLPVSLGDQASISCRSSQSIVHSNGNTYLEWYLQKPGQSPKLLIYKVSTRFSGVPDRFSGSGSGTDFTLKISRVEAEDLGVYYCFQGSRVPLTFGAGTKLELK
As for B3, the binding result (in experiment [4]; with synthesized A beta1-42 [2]; in [5]) was “binds” in each case.

B4: AL-231 antibody (antibody, IgG2a, V domains shown)
VH: QVTLKESGPGILKPSQTLSLTCSFSGFSLSTSGMGVGWIRQPSGKGLEWLAHIWWDDDKYYNPSLKSQLTISKDTSRNQVFLKITSVDTADTATYYCARRALNWDVFDYWGQGTTLTVSS
VL: DVLMTQTPLSLPVSLGDQASISCRSSQSIVHSNGNTYLEWYLQKPGQSPKLLIYKVSNRFSGVPDRFSGSGSGTDFTLKISRVEAEDLGVYYCFQGSHVPLTFGAGTKLELK
Regarding B4, the binding result (with synthesized A beta1-42 [2]; in [6]; in experiment [7]) was “binds” throughout.

B5: AL-225 antibody (antibody, IgG2a, V domains shown)
VH: QVTLKESGPGILKPSQTLSLTCSFSGFSLSTSGMGVGWIRQPSGKGLEWLAHIWWDDDKYYNPSLKSQLTISKDTSRNQVFLKITSVDTADTATYYCARRGLIRQDYFDYWGQGTTLTVSS
VL: DVLMTQTPLSLPVSLGDQASISCRSSQSIVHSNGNTYLEWYLQKPGQSPKLLIYKVSNRFSGVPDRFSGSGSGTDFTLKISRVEAEDLGVYYCFQGSHVPLTFGAGTKLELK
A word on the Kd: it is the free concentration of one partner at which half of the binding sites on the other are occupied at equilibrium, for simple one-to-one binding. A lower Kd goes with tighter binding. As a reminder, the koff is a measure of how fast the partners let go of each other. By kon is commonly meant a measure of how fast the partners come together. In [8], B5 came in with a dissociation constant Kd of 0.126 µM, a koff of 0.0192 s⁻¹ and a kon of 152000 M⁻¹ s⁻¹.

B6: AL-204 antibody (antibody, V domains shown)
VH: EVQLVESGGGLVKPGGSLKLSCAASGFTFSDYYMYWVRQTPEKRLEWVATISDGGSYTYYPDSVKGRFTISRDNAKNNLYLQMSSLKSEDTAMYYCARAKYYRYDGGGAYAMDYWGQGTSVTVSS
VL: NIMMTQSPSSLAVSAGEKVTMSCKSSQSVLYSSNQKNYLAWYQQKPGQSPKLLIYWASTRESGVPDRFTGSGSGTDFTLTISSVQAEDLAVYYCHQYLSSYTFGGGTKLEIK
Take B6: the binding result with synthesized A beta1-42 [9] is “binds”.

B7: AL-205 antibody (antibody, IgG2a, V domains shown)
VH: EVKLEESGGGLVQPGGSMKLSCVASGFTFSNYWMNWVRQSPEKGLEWVAEIRLKSNNYATHYAESVKGRFTISRDDSKSSVYLQMNNLRAEDTGIYYCTRGTRVWLRREAWFAYWGQGTLVTVSA
VL: not shown
Consider B7, for which the binding result with synthesized A beta1-42 [9] is listed as “binds”.

B8: AL-233 antibody (antibody, IgG2b, V domains shown)
VH: DVQLQESGPDLVKPSQSLSLTCTVTGYSITSGYSWHWIRQFPGNKLEWMGYIHYSGSTNYNPSLKSRISITRDTSKNQFFLQLNSVTTEDTATYYCARRGYDGYYSWFAYWGQGTLVTVSA
VL: SQAVVTQESALTTSPGETVTLTCRSSTGAVTTSNYANWVQEKPDHLFTGLIGGTNNRAPGVPARFSGSLIGDKAALTITGAQTEDEAIYFCALWYSNHWVFGGGTKLTVLG
For the molecule B8, the binding result (with synthesized A beta1-42 [2]; in experiment [6]; in experiment [7]) was “binds” each time.

B9: AL-209 antibody (antibody, IgG2a, V domains shown)
VH: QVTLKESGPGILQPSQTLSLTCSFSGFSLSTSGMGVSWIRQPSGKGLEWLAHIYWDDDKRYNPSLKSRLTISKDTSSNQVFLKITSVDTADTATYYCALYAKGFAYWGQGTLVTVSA
VL: DIQMTQSPSSLSASLGGKVTITCKASQDINKYIAWYQHKPGKGPRLLIHYTSTLQPGIPSRFSGSGSGRDYSFSISNLEPEDIATYYCLQYDNLYTFGGGTKLEIK
For the molecule B9, the binding result (in experiment [4]; in the experiment with synthesized A beta1-42 [2]; in experiment [5]) was “binds” throughout.
